Columns and labels:
Assay in all cases: flow cytometry on transfected 293T cells, 5 ug/ml; grade of Loss of binding read by footnote 2
[1] = biological target: GARP M111T/A112G/T113M / TGF-β1 complex (human, UniProt Q14392 20-662; P01137 30-390)
Source text: (§1) Resolution of the crystal structure of MHG-8 Fab/GARP/TGF-β1 complexes and analysis with the CONTACT software allowed the identification of 22 amino-acids in GARP, 8 amino-acids in LAP and 6 amino-acids in mature TGF-β1 that are located less than 5 Å away from an amino-acid of the light or heavy chain of the MHG-8 Fab (Tables 7a, b and c, and Table 8). Directed mutagenesis was used to construct plasmids encoding HA-tagged forms of GARP or TGF-β1 that are mutated at one, two, or three of these 36 positions (all mutations constructed are indicated in Table 8). […] Antibodies were used at a saturating concentration of 5 μg/ml for labeling. Binding of each antibody to a given mutant GARP/TGF-β1 complex was compared to their binding to wild type (WT) complexes, by determining an I_{m/wt} value (i.e. intensity of binding to mutant by comparison to WT). This value was calculated as follows: I_{m/wt} of antibody X=[Geom on mutant−Geom on control]/[Geom on WT−Geom on control]
(§2) The level of residual binding of anti-GARP or anti-LAP antibodies to each mutant was then calculated by comparison to WT, taking into account the expression levels of mutant and WT forms as measured with anti-HA antibodies. Residual binding was calculated as follows: Residual binding by an anti-GARP or anti-LAP antibody=[I_{m/wt} with anti-GARP or anti-LAP antibody]/[I_{m/wt} with anti-HA antibody]

[2] = biological target: GARP A114R / TGF-β1 complex (human, UniProt Q14392 20-662; P01137 30-390)
Source text: as §1, §2

[3] = biological target: GARP S116N / TGF-β1 complex (human, UniProt Q14392 20-662; P01137 30-390)
Source text: as §1, §2

[4] = biological target: GARP A117R / TGF-β1 complex (human, UniProt Q14392 20-662; P01137 30-390)
Source text: as §1, §2

[5] = biological target: GARP G118L/G119L / TGF-β1 complex (human, UniProt Q14392 20-662; P01137 30-390)
Chain of GARP G118L/G119L / TGF-β1 complex (Q14392 20-662 G118L/G119L limits assumed, chain 1 of 2): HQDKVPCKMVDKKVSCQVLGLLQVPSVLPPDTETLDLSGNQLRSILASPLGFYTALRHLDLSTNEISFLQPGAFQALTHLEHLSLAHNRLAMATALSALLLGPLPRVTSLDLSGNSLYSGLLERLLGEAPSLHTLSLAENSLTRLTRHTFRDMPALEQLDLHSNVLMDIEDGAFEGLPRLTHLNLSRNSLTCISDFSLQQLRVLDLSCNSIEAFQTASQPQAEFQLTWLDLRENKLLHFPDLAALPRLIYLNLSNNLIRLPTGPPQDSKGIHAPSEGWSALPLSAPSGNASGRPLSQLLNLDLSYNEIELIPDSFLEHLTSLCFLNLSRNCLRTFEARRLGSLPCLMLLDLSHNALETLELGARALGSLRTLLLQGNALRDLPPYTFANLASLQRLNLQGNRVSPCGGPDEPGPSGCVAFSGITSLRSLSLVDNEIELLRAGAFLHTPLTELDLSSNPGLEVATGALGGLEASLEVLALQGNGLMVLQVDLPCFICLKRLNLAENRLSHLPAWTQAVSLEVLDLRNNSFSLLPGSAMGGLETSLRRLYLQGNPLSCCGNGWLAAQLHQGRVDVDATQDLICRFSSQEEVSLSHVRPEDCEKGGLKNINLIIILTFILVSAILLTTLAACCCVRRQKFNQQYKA
Chain of GARP G118L/G119L / TGF-β1 complex (P01137 30-390 limits assumed, chain 2 of 2): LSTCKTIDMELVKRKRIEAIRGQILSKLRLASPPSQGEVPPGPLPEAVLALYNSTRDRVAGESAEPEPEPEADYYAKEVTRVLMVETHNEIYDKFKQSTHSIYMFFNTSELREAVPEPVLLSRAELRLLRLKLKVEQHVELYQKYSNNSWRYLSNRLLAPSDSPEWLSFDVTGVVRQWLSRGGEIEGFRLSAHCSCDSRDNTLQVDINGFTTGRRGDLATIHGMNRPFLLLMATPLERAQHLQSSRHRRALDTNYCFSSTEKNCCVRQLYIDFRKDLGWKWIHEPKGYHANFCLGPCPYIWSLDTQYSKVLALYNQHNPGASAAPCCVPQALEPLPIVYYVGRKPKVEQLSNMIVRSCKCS
Source text: as §1, §2

[6] = biological target: GARP S138G / TGF-β1 complex (human, UniProt Q14392 20-662; P01137 30-390)
Chain of GARP S138G / TGF-β1 complex (Q14392 20-662 S138G limits assumed, chain 1 of 2): as the sequence (Q14392 20-662 G118L/G119L limits assumed, chain 1 of 2) above, with L99G, L100G, S119G counted along it
Chain of GARP S138G / TGF-β1 complex (P01137 30-390 limits assumed, stated change not applied, chain 2 of 2): as the sequence (P01137 30-390 limits assumed, chain 2 of 2) above
Source text: as §1, §2

[7] = biological target: GARP G139N / TGF-β1 complex (human, UniProt Q14392 20-662; P01137 30-390)
Chain of GARP G139N / TGF-β1 complex (Q14392 20-662 G139N limits assumed, chain 1 of 2): as the sequence (Q14392 20-662 G118L/G119L limits assumed, chain 1 of 2) above, with L99G, L100G, G120N counted along it
Chain of GARP G139N / TGF-β1 complex (P01137 30-390 limits assumed, chain 2 of 2): as the sequence (P01137 30-390 limits assumed, chain 2 of 2) above
Source text: as §1, §2

[8] = biological target: GARP L140K/E142L / TGF-β1 complex (human, UniProt Q14392 20-662; P01137 30-390)
Source text: as §1, §2

[9] = biological target: GARP R143A / TGF-β1 complex (human, UniProt Q14392 20-662; P01137 30-390)
Source text: as §1, §2

[10] = biological target: GARP R163E / TGF-β1 complex (human, UniProt Q14392 20-662; P01137 30-390)
Source text: as §1, §2

[11] = biological target: GARP T165A / TGF-β1 complex (human, UniProt Q14392 20-662; P01137 30-390)
Source text: as §1, §2

[12] = biological target: GARP E189A / TGF-β1 complex (human, UniProt Q14392 20-662; P01137 30-390)
Source text: as §1, §2

[13] = biological target: GARP / TGF-β1 E146R complex (human, UniProt Q14392 20-662; P01137 30-390)
Source text: as §1, §2

[14] = biological target: GARP / TGF-β1 Q272Y complex (human, UniProt Q14392 20-662; P01137 30-390)
Source text: as §1, §2

[15] = biological target: GARP / TGF-β1 L271R/Q272Y/S273W complex (human, UniProt Q14392 20-662; P01137 30-390)
Source text: as §1, §2

[16] = biological target: GARP / TGF-β1 Y284A complex (human, UniProt Q14392 20-662; P01137 30-390)
Source text: as §1, §2

[17] = biological target: GARP / TGF-β1 S337A complex (human, UniProt Q14392 20-662; P01137 30-390)
Source text: as §1, §2

[18] = biological target: GARP / TGF-β1 Q345A complex (human, UniProt Q14392 20-662; P01137 30-390)
Source text: as §1, §2

Chain of GARP M111T/A112G/T113M / TGF-β1 complex (Q14392 20-662 M111T/A112G/T113M limits assumed, chain 1 of 2): as the sequence (Q14392 20-662 G118L/G119L limits assumed, chain 1 of 2) above, with M92T, A93G, T94M, L99G, L100G counted along it
Chain of GARP M111T/A112G/T113M / TGF-β1 complex (P01137 30-390 limits assumed, chain 2 of 2): as the sequence (P01137 30-390 limits assumed, chain 2 of 2) above

- residual binding on mutant by comparison to WT [1]: ≥ 50%
- residual binding on mutant by comparison to WT [2]: ≥ 50%
- residual binding on mutant by comparison to WT [3]: ≥ 50%
- residual binding on mutant by comparison to WT [4]: ≥ 50%
- residual binding on mutant by comparison to WT [5]: ≥ 50%
- residual binding on mutant by comparison to WT [6]: ≥ 50%
- residual binding on mutant by comparison to WT [7]: ≥ 50%
- residual binding on mutant by comparison to WT [8]: ≥ 50%
- residual binding on mutant by comparison to WT [9]: ≥ 50%
- residual binding on mutant by comparison to WT [10]: < 50%
- residual binding on mutant by comparison to WT [11]: ≥ 50%
- residual binding on mutant by comparison to WT [12]: ≥ 50%
- residual binding on mutant by comparison to WT [13]: ≥ 50%
- residual binding on mutant by comparison to WT [14]: ≥ 50%
- residual binding on mutant by comparison to WT [15]: ≥ 50%
- residual binding on mutant by comparison to WT [16]: ≥ 50%
- residual binding on mutant by comparison to WT [17]: ≥ 50%
- residual binding on mutant by comparison to WT [18]: ≥ 50%
B1: LHG-10 (antibody, human IgG1, V domains shown)
VH: EVQLVQPGAELRNSGASVKVSCKASGYRFTSYYIDWVRQAPGQGLEWMGRIDPEDGGTKYAQKFQGRVTFTADTSTSTAYVELSSLRSEDTAVYYCARNEWETVVVGDLMYEYEYWGQGTQVTVSS
VL: DIQMTQSPTSLSASLGDRVTITCQASQSISSYLAWYQQKPGQAPKLLIYGASRLQTGVPSRFSGSGSGTSFTLTISGLEAEDAGTYYCQQYDSLPVTFGQGTKVELK
notes: llama-derived V regions in a full human IgG1

— patent US20160251438A1 (LUDWIG INSTITUTE FOR CANCER RESEARCH, published 2016)
